Reference: publication doi:10.1101/2020.09.13.295345 (bioRxiv, 2020)

Molecular target: the molecule itself
Assay: native gel or EMSA

| Protein | binding result |
| --- | --- |
| Thermus thermophilus ClpB, full-length (natural protein) not shown | binds |
| ΔNClpB, Thermus thermophilus ClpB lacking the N-terminal domain (domain or fragment) not shown | binds |
